B1: … (SEQ ID No 170) (peptide)
peptide: VYEDQVGKF
B2: … (SEQ ID No 270) (peptide)
peptide: NYYEVHKELF
B3: … (SEQ ID No 169) (peptide)
peptide: AYTLIAPNI
B4: … (SEQ ID No 287) (peptide)
peptide: LYITEPKTI
B5: … (SEQ ID No 175) (peptide)
peptide: YYEVHKELF
B6: … (SEQ ID No 207) (peptide)
peptide: AYVVFVSTL
B7: … (SEQ ID No 218) (peptide)
peptide: YYKSTSSAF
B8: … (SEQ ID No 281) (peptide)
peptide: PYRLIFEKF
B9: … (SEQ ID No 202) (peptide)
peptide: VYWDSAGAAHF
B10: … (SEQ ID No 163) (peptide)
peptide: DYLKGLASF
B11: … (SEQ ID No 268) (peptide)
peptide: QYLGQIQHI
B12: … (SEQ ID No 209) (peptide)
peptide: TYKDEGNDYF
B13: … (SEQ ID No 158) (peptide)
peptide: HYSQELSLLYL
B14: … (SEQ ID No 269) (peptide)
peptide: YFIDSTNLKTHF
B15: … (SEQ ID No 161) (peptide)
peptide: IYLVSIPEL
B16: … (SEQ ID No 285) (peptide)
peptide: HYPPVQVLF
B17: … (SEQ ID No 168) (peptide)
peptide: KYQDILETI
B18: … (SEQ ID No 159) (peptide)
peptide: LYNKGFIYL
B19: … (SEQ ID No 204) (peptide)
peptide: TYELRYFQI
B20: … (SEQ ID No 199) (peptide)
peptide: RYAEEVGIF
B21: … (SEQ ID No 174) (peptide)
peptide: VYVGGGQIIHL
B22: … (SEQ ID No 162) (peptide)
peptide: VFTRVSSFL
B23: … (SEQ ID No 173) (peptide)
peptide: IYSWILDHF
B24: … (SEQ ID No 196) (peptide)
peptide: LYIDRPLPYL
B25: … (SEQ ID No 197) (peptide)
peptide: EYSLFPGQVVI
B26: … (SEQ ID No 165) (peptide)
peptide: DYTTWTALL
B27: … (SEQ ID No 160) (peptide)
peptide: VYTLDIPVL
B28: … (SEQ ID No 176) (peptide)
peptide: EYNQWFTKL
B29: … (SEQ ID No 277) (peptide)
peptide: VYQGHTALL
B30: … (SEQ ID No 166) (peptide)
peptide: YYVESGKLF
B31: … (SEQ ID No 201) (peptide)
peptide: IYATEAHVF
B32: … (SEQ ID No 222) (peptide)
peptide: TFSVSSHLF
B33: … (SEQ ID No 171) (peptide)
peptide: LFIPSSKLLFL
B34: … (SEQ ID No 167) (peptide)
peptide: NYINRILKL
B35: … (SEQ ID No 195) (peptide)
peptide: TYSVSFPMF
B36: … (SEQ ID No 164) (peptide)
peptide: KFSSFSLFF
B37: … (SEQ ID No 200) (peptide)
peptide: YYGPSLFLL

target: HLA-A*24 (human); assay: UV-ligand exchange, b2m ELISA

peptide exchange yield [%] | Binder
20 to 49 | B1
50 to 75 | B2
50 to 75 | B3
50 to 75 | B4
> 75 | B5
20 to 49 | B6
50 to 75 | B7
20 to 49 | B8
> 75 | B9
> 75 | B10
50 to 75 | B11
50 to 75 | B12
> 75 | B13
50 to 75 | B14
> 75 | B15
50 to 75 | B16
> 75 | B17
> 75 | B18
> 75 | B19

peptide exchange yield [%] | Binder
50 to 75 | B20
50 to 75 | B21
50 to 75 | B22
> 75 | B23
50 to 75 | B24
50 to 75 | B25
> 75 | B26
> 75 | B27
50 to 75 | B28
> 75 | B29
> 75 | B30
50 to 75 | B31
50 to 75 | B32
50 to 75 | B33
> 75 | B34
> 75 | B35
50 to 75 | B36
50 to 75 | B37

From patent US20170189513A1
